T1: IFN-γ receptor (IFNGR1 and IFNGR2) (UniProt P15260 18-489; P38484 22-337, limits assumed)
T1 sequence (looked up) 1: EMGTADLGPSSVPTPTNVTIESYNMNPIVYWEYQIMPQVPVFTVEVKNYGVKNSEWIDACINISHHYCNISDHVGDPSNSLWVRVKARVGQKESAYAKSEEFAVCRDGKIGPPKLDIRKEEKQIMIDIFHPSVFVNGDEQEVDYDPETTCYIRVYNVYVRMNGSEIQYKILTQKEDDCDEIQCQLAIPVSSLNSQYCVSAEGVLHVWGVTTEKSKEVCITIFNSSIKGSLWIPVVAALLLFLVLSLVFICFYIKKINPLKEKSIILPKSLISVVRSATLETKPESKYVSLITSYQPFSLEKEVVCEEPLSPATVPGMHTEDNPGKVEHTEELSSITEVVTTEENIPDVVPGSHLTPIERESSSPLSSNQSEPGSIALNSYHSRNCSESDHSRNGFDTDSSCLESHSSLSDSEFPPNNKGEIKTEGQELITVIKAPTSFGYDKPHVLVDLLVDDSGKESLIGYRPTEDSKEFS
T1 sequence (looked up) 2: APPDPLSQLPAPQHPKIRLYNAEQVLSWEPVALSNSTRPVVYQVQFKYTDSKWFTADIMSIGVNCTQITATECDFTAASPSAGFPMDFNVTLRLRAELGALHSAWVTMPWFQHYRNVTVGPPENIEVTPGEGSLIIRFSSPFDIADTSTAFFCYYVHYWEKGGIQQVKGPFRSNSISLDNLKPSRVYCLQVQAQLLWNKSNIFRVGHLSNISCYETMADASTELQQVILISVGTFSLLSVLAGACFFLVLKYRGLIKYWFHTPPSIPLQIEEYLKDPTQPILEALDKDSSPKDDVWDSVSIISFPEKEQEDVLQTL

T2: mouse PD-1 (mouse, UniProt Q02242 25-167, limits assumed)
T2 construct: also called mPD-1
T2 sequence (looked up): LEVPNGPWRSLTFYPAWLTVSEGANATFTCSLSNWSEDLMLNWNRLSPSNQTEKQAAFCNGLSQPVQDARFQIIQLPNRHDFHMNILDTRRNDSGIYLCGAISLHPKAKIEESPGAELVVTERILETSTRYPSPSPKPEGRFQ


Tests used:
[1] = biological target: T1, IFN-γ receptor (IFNGR1 and IFNGR2); assay: cell-based or functional assay
human PD-1 = biological target: T3, human PD-1 (human, UniProt Q15116 25-167, limits assumed); assay: PD-L2-Fc format, calibrated on PD-L2(wt)-Fc, method not stated
T3 construct: also called hPD-1

mouse PD-1 = biological target: T2, mouse PD-1; assay: as above

T3 sequence (Q15116 25-167 limits assumed): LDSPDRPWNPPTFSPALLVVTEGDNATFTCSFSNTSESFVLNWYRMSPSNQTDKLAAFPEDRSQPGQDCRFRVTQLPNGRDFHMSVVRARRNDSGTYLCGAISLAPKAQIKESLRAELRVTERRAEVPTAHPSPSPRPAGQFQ

Binder | IFN-γ signal transduction, HEK-IFN-γ [1] [%] | Kd (human PD-1) [nM] | Kd (mouse PD-1) [nM]
IFN-γ(A23V/A23V)/CD155-Fc (Fc fusion) chain 1: WPPPGTGDVVVQAPTQVPGFLGDSVTLPCYLQVPNMEVTHVSQLTWARHGESGSMAVFHQTQGPSYSESKRLEFVAARLGAELRNASLRMFGLRVEDEGNYTCLFVTFPQGSRSVDIWLRVLAKPQNTAEVQKVQLTGEPVPMARCVSTGGRPPAQITWHSDLGGMPNTSQVPGFLSGTVTVTSLWILVPSSQVDGKNVTCKVEHESFEKPQLLTVNLTVYYPPEVSISGYDNNWYLGQNEATLTCDARSNPEPTGYNWSTTMGPLPPFAVAQGAQLLIRPVDKPINTTLICNVTNALGARQAELTVQVKEGPPSEHSGISRNGGGGSGGGDKTHTCPPCPAPEDEGGPSVFLFPPKPKDTLMISRTPEVTCVVVDVSHEDPEVKFNWYVDGVEVHNAKTKPREEQYNSTYRVVSVLTVLHQDWLNGKEYKCKVSNKALPAPIEKTISKAKGQPREPQVYVYPPSREEMTKNQVSLTCLVKGFYPSDIAVEWESNGQPENNYKTTPPVLDEDGSFALVSKLTVDKSRWQQGNVFSCSVMHEALHNHYTQKSLSLSPGK chain 2: WPPPGTGDVVVQAPTQVPGFLGDSVTLPCYLQVPNMEVTHVSQLTWARHGESGSMAVFHQTQGPSYSESKRLEFVAARLGAELRNASLRMFGLRVEDEGNYTCLFVTFPQGSRSVDIWLRVLAKPQNTAEVQKVQLTGEPVPMARCVSTGGRPPAQITWHSDLGGMPNTSQVPGFLSGTVTVTSLWILVPSSQVDGKNVTCKVEHESFEKPQLLTVNLTVYYPPEVSISGYDNNWYLGQNEATLTCDARSNPEPTGYNWSTTMGPLPPFAVAQGAQLLIRPVDKPINTTLICNVTNALGARQAELTVQVKEGPPSEHSGISRNGGGSGQDPYVKEAENLKKYFNAGHSDVVDNGTLFLGILKNWKEESDRKIMQSQIVSFYFKLFKNFKDDQSIQKSVETIKEDMNVKFFNSNKKKRDDFEKLTNYSVTDLNVQRKAIHELIQVMAELSPAAKTGKRKRSQMLFRGGGGSGGGGSGGGGSGGGGSQDPYVKEAENLKKYFNAGHSDVVDNGTLFLGILKNWKEESDRKIMQSQIVSFYFKLFKNFKDDQSIQKSVETIKEDMNVKFFNSNKKKRDDFEKLTNYSVTDLNVQRKAIHELIQVMAELSPAAKTGKRKRSQMLFRGGGGGSGGGDKTHTCPPCPAPEKKGGPSVFLFPPKPKDTLMISRTPEVTCVVVDVSHEDPEVKFNWYVDGVEVHNAKTKPREEQYNSTYRVVSVLTVLHQDWLNGKEYKCKVSNKALPAPIEKTISKAKGQPREPQVYVLPPSREEMTKNQVSLLCLVKGFYPSDIAVEWESNGQPENRYMTWPPVLDSDGSFFLYSKLTVDKSRWQQGNVFSCSVMHEALHNHYTQKSLSLSPGK | < 0.2 |  | 
PD-L2(mut2)-Fc, S58V (Fc fusion, also called PD-L2(S58V)) chain 1: LFTVTVPKELYIIEHGSNVTLECNFDTGSHVNLGAITAVLQKVENDTSPHRERATLLEEQLPLGKASFHIPQVQVRDEGQYQCIIIYGVAWDYKYLTLKVKASYRKINTHILKVPETDEVELTCQATGYPLAEVSWPNVSVPANTSHSRTPEGLYQVTSVLRLKPPPGRNFSCVFWNTHVRELTLASIDLQSQMEPRTHPTGGGGSGGGDKTHTCPPCPAPEDEGGPSVFLFPPKPKDTLMISRTPEVTCVVVDVSHEDPEVKFNWYVDGVEVHNAKTKPREEQYNSTYRVVSVLTVLHQDWLNGKEYKCKVSNKALPAPIEKTISKAKGQPREPQVYVYPPSREEMTKNQVSLTCLVKGFYPSDIAVEWESNGQPENNYKTTPPVLDEDGSFALVSKLTVDKSRWQQGNVFSCSVMHEALHNHYTQKSLSLSPGK chain 2: LFTVTVPKELYIIEHGSNVTLECNFDTGSHVNLGAITAVLQKVENDTSPHRERATLLEEQLPLGKASFHIPQVQVRDEGQYQCIIIYGVAWDYKYLTLKVKASYRKINTHILKVPETDEVELTCQATGYPLAEVSWPNVSVPANTSHSRTPEGLYQVTSVLRLKPPPGRNFSCVFWNTHVRELTLASIDLQSQMEPRTHPTGGGGSGGGDKTHTCPPCPAPEKKGGPSVFLFPPKPKDTLMISRTPEVTCVVVDVSHEDPEVKFNWYVDGVEVHNAKTKPREEQYNSTYRVVSVLTVLHQDWLNGKEYKCKVSNKALPAPIEKTISKAKGQPREPQVYVLPPSREEMTKNQVSLLCLVKGFYPSDIAVEWESNGQPENRYMTWPPVLDSDGSFFLYSKLTVDKSRWQQGNVFSCSVMHEALHNHYTQKSLSLSPGK |  | 350 | 230

Results, then the binder that gave them:

IFN-γ signal transduction, HEK-IFN-γ [1] [%] | Kd (human PD-1) [nM] | Kd (mouse PD-1) [nM] | Binder
 | 520 | 430 | PD-L2(mut1)-Fc, T56V (Fc fusion) chain 1: LFTVTVPKELYIIEHGSNVTLECNFDTGSHVNLGAIVASLQKVENDTSPHRERATLLEEQLPLGKASFHIPQVQVRDEGQYQCIIIYGVAWDYKYLTLKVKASYRKINTHILKVPETDEVELTCQATGYPLAEVSWPNVSVPANTSHSRTPEGLYQVTSVLRLKPPPGRNFSCVFWNTHVRELTLASIDLQSQMEPRTHPTDKTHTCPPCPAPEDEGGPSVFLFPPKPKDTLMISRTPEVTCVVVDVSHEDPEVKFNWYVDGVEVHNAKTKPREEQYNSTYRVVSVLTVLHQDWLNGKEYKCKVSNKALPAPIEKTISKAKGQPREPQVYVYPPSREEMTKNQVSLTCLVKGFYPSDIAVEWESNGQPENNYKTTPPVLDEDGSFALVSKLTVDKSRWQQGNVFSCSVMHEALHNHYTQKSLSLSPGK chain 2: LFTVTVPKELYIIEHGSNVTLECNFDTGSHVNLGAIVASLQKVENDTSPHRERATLLEEQLPLGKASFHIPQVQVRDEGQYQCIIIYGVAWDYKYLTLKVKASYRKINTHILKVPETDEVELTCQATGYPLAEVSWPNVSVPANTSHSRTPEGLYQVTSVLRLKPPPGRNFSCVFWNTHVRELTLASIDLQSQMEPRTHPTDKTHTCPPCPAPEKKGGPSVFLFPPKPKDTLMISRTPEVTCVVVDVSHEDPEVKFNWYVDGVEVHNAKTKPREEQYNSTYRVVSVLTVLHQDWLNGKEYKCKVSNKALPAPIEKTISKAKGQPREPQVYVLPPSREEMTKNQVSLLCLVKGFYPSDIAVEWESNGQPENRYMTWPPVLDSDGSFFLYSKLTVDKSRWQQGNVFSCSVMHEALHNHYTQKSLSLSPGK
 | 490 | 320 | PD-L2(mut3)-Fc, Q60L (Fc fusion) chain 1: LFTVTVPKELYIIEHGSNVTLECNFDTGSHVNLGAITASLLKVENDTSPHRERATLLEEQLPLGKASFHIPQVQVRDEGQYQCIIIYGVAWDYKYLTLKVKASYRKINTHILKVPETDEVELTCQATGYPLAEVSWPNVSVPANTSHSRTPEGLYQVTSVLRLKPPPGRNFSCVFWNTHVRELTLASIDLQSQMEPRTHPTDKTHTCPPCPAPEDEGGPSVFLFPPKPKDTLMISRTPEVTCVVVDVSHEDPEVKFNWYVDGVEVHNAKTKPREEQYNSTYRVVSVLTVLHQDWLNGKEYKCKVSNKALPAPIEKTISKAKGQPREPQVYVYPPSREEMTKNQVSLTCLVKGFYPSDIAVEWESNGQPENNYKTTPPVLDEDGSFALVSKLTVDKSRWQQGNVFSCSVMHEALHNHYTQKSLSLSPGK chain 2: LFTVTVPKELYIIEHGSNVTLECNFDTGSHVNLGAITASLLKVENDTSPHRERATLLEEQLPLGKASFHIPQVQVRDEGQYQCIIIYGVAWDYKYLTLKVKASYRKINTHILKVPETDEVELTCQATGYPLAEVSWPNVSVPANTSHSRTPEGLYQVTSVLRLKPPPGRNFSCVFWNTHVRELTLASIDLQSQMEPRTHPTDKTHTCPPCPAPEKKGGPSVFLFPPKPKDTLMISRTPEVTCVVVDVSHEDPEVKFNWYVDGVEVHNAKTKPREEQYNSTYRVVSVLTVLHQDWLNGKEYKCKVSNKALPAPIEKTISKAKGQPREPQVYVLPPSREEMTKNQVSLLCLVKGFYPSDIAVEWESNGQPENRYMTWPPVLDSDGSFFLYSKLTVDKSRWQQGNVFSCSVMHEALHNHYTQKSLSLSPGK
 | 255 | 220 | PD-L2(mut4)-Fc, T56V/S58V/Q60L (Fc fusion) chain 1: LFTVTVPKELYIIEHGSNVTLECNFDTGSHVNLGAIVAVLLKVENDTSPHRERATLLEEQLPLGKASFHIPQVQVRDEGQYQCIIIYGVAWDYKYLTLKVKASYRKINTHILKVPETDEVELTCQATGYPLAEVSWPNVSVPANTSHSRTPEGLYQVTSVLRLKPPPGRNFSCVFWNTHVRELTLASIDLQSQMEPRTHPTGGGGSGGGDKTHTCPPCPAPEDEGGPSVFLFPPKPKDTLMISRTPEVTCVVVDVSHEDPEVKFNWYVDGVEVHNAKTKPREEQYNSTYRVVSVLTVLHQDWLNGKEYKCKVSNKALPAPIEKTISKAKGQPREPQVYVYPPSREEMTKNQVSLTCLVKGFYPSDIAVEWESNGQPENNYKTTPPVLDEDGSFALVSKLTVDKSRWQQGNVFSCSVMHEALHNHYTQKSLSLSPGK chain 2: LFTVTVPKELYIIEHGSNVTLECNFDTGSHVNLGAIVAVLLKVENDTSPHRERATLLEEQLPLGKASFHIPQVQVRDEGQYQCIIIYGVAWDYKYLTLKVKASYRKINTHILKVPETDEVELTCQATGYPLAEVSWPNVSVPANTSHSRTPEGLYQVTSVLRLKPPPGRNFSCVFWNTHVRELTLASIDLQSQMEPRTHPTGGGGSGGGDKTHTCPPCPAPEKKGGPSVFLFPPKPKDTLMISRTPEVTCVVVDVSHEDPEVKFNWYVDGVEVHNAKTKPREEQYNSTYRVVSVLTVLHQDWLNGKEYKCKVSNKALPAPIEKTISKAKGQPREPQVYVLPPSREEMTKNQVSLLCLVKGFYPSDIAVEWESNGQPENRYMTWPPVLDSDGSFFLYSKLTVDKSRWQQGNVFSCSVMHEALHNHYTQKSLSLSPGK

Source: patent US20240392004A1 (IMMUNOWAKE, published 2024)
